Consider 1 molecule from patent US20050084840A1, “Method for screening drug for improving insulin resistance” (priority 2002, published 2005).

The target of the test is GAL-PPARγ: chimera protein of the DNA binding region (1-147 amino acids) of yeast Gal4 with the ligand binding region of human PPARγ2 fused to its C terminus, expressed in COS-1 cells (yeast; human) (UniProt P04386). Kind of test: cell-based or functional assay.

B1: full-length AOP2 with vector-derived V5 epitope and HIS6 tag at the C terminus, expressed from pcDNA-AOP2 in COS-1 cells (protein, not shown: small tags and cut ends)
chain: PGGLLLGDVAPNFEANTTVGRIRFHDFLGDSWGILFSHPRDFTPVCTTELGRAAKLAPEFAKRNVKLIALSIDSVEDHLAWSKDINAYNCEEPTEKLPFPIIDDRNRELAILLGMLDPAEKDEKGMPVTARVVFVFGPDKKLKLSILYPATTGRNFDEILRVVISLQLTAEKRVATPVDWKDGDSVMVLPTIPEEEAKKLFPKGVFTKELPSGKKYLRYTPQP
On to B1, for which the promotion of the transcription induction ability of PPARγ in the presence of AOP2 (corrected luciferase activity, COS-1), GI-262570 at 1.0 µM and 10 µM is 3.5 fold; the promotion of the transcription induction ability of PPARγ in the presence of AOP2 (corrected luciferase activity, COS-1), GL-100085 at 1.0 to 10 µM was 4 to 6 fold; the promotion of the transcription induction ability of PPARγ in the presence of AOP2 (corrected luciferase activity, COS-1), GW7282 at 1.0 to 10 µM lay in the range of 4 to 5 fold.
